Data reported in patent US9732156B2, “Methods of treating rheumatoid arthritis using antibodies to matrix metalloproteinase 9” (Gilead Biologics, Inc., priority 2012, dated 2017).

Key:
[1] = test system: lipopolysaccharide (LPS)-induced animal death; assay: LPS-induced septicemia model; format: in vivo, rat; conditions: after four days
Lewis rats = conditions: rat, in vivo
Description: AB0041 was evaluated for safety in Lewis rats in comparison to the pan-MMP inhibitor, Marimastat, in a 28-day study.
Six rats per group were intravenously administered twice per week with either AB0041 at 50 mg/kg or Vehicle-A (10 mM sodium phosphate, pH 6.5, 140 mM sodium chloride, 0.01% Tween20). In addition, six rats per group were treated with Marimastat or Vehicle-M (50% DMSO/50% water) through a surgically implanted subcutaneous Alzet pump (Alzet, Cupertino, Calif.), which delivered at a rate of 2.5 μl/hour for a period of 28 days. The Marimastat release rate was between 6.8 to 5.7 mg/kg/day.
Animals were observed and scored daily for signs of MSS, such as reluctance to move and avoidance of the use of the hind feet. The following system was used to score resting posture, gait and willingness to move: resting posture was scored as 0 (normal), 1 (resting on one foot) or 2 (resting on neither one foot nor two feet). Gait was scored as either 0 (normal), 1 (avoids use of one hind foot) or 2 (avoids use of both hind feet). Willingness-to-move upon stimulation was scored as either 0 (normal movement), 1 (somewhat reluctant to move), 2 (moderately reluctant to move) or 3 (very reluctant to move). In addition, the body weights were recorded twice weekly.
Total scores were calculated as the sum of gait score, resting posture score and willingness-to-move score for each animal. Mean total scores per group were calculated as the average of the total scores from all individual animals per group per day.
Serum was collected from all rats on one day before and days 1, 7, 10, 14, 17, 21, 24, 28 post administration. Serum was centrifuged at 10,000×g for 10 minutes and collected for storage at −20° C. Serum was subject to multianalyte serum protein analysis (RodentMAPv2.0, IDEXX Laboratories).
Tissues and limbs from the rats were harvested and fixed in 10% neutral buffered formalin for histopathologic analysis using hematoxylin and eosin (H&E).

CD4+ T cell = assay: EpiScreen ex vivo human T cell activation assay (immunogenicity); format: cell-based
Description: The potential clinical immunogenicity of the chimeric MMP9 antibody AB0041 and the humanized MMP9 antibody AB0045 was assessed. An ex vivo human T cell activation assay, the EpiScreen (Antitope, Ltd., Cambridge, UK) was used. The T cell activation in the EpiScreen assay has been correlated to the antibody/protein therapeutic responses in patients. The response of CD4+ T cell in 20 healthy donors, representing a variety of HLA haplotypes, was examined. […] A positive control of KLH induced a response in 95% of the donors, with a magnitude of 6.34+/−2.77 (mean+/−standard deviation).

[2] = AB0041 serum levels by indirect binding ELISA in the MSS study; format: in vivo, rat; conditions: Day 0 to Day 28; 50 mg/kg IV twice per week
Description: Levels of AB0041 in rat serum were measured by an indirect binding ELISA. ELISA plates were coated with 2 μg/ml of […] in 50 mM sodium borate overnight at 4° C. The plates were blocked with 5% bovine serum albumin (BSA) in phosphate buffered saline, pH 7.4 (PBS) and washed with 0.05% Tween 20 in PBS (PBST). A standard curve was prepared by serially diluting AB0041 in PBST to generate a series ranging from 3,000 ng/ml to 1.5 ng/ml. Serum samples were diluted at least 1:100 in PBST then added to the pre-coated ELISA plate. After one-hour incubation, the plates were washed and polyclonal goat-anti mouse IgG-HRP detection antibody (Thermo Scientific, Fair Lawn, N.J.) was added to the plate at 1:10,000 dilution in 0.5% BSA/PBS. The plates were washed and signal was detected by addition of 3,3′,5,5′-tetramethylbenzidine (TMB) (Sigma Aldrich, St. Louis, Mo.) for 2 minutes. The reaction was stopped by addition of 1M hydrochloric acid (HCl) and absorbance at 450 nm was measured. AB0041 levels in serum were back-calculated using a four-parameter curve fit in the SoftMax software package (Molecular Devices).

MMP9 = MMP9 (Homo sapiens, UniProt P14780); assay: Comparison of binding and inhibitory properties of anti-MMP9 antibodies; conditions: AB0045 compared with AB0041
MMP9, sequence (P14780 94-707, species assumed): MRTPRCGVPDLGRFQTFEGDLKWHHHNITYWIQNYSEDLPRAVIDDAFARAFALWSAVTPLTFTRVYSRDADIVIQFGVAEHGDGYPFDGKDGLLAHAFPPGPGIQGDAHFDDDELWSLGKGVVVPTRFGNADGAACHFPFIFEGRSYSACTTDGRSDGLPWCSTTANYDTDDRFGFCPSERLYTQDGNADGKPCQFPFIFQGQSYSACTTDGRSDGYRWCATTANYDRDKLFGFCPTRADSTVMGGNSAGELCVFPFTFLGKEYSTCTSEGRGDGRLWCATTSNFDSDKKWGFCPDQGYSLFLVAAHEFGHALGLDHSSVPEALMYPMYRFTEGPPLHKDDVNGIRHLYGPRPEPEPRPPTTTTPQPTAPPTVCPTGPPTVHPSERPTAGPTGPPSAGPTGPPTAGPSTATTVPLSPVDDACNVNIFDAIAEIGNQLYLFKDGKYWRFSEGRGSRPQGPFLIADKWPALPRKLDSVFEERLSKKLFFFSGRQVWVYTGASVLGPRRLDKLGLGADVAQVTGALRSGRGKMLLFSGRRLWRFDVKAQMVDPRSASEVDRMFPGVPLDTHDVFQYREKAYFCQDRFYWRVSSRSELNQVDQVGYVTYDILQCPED

adjuvant arthritis (AIA) = assay: Adjuvant-induced arthritis (AIA) rat model of established disease; conditions: in vivo
Excerpt: The anti-MMP9 antibody, AB0041, was efficacious in treating both inflammation and joint damage in both adjuvant and collagen-induced arthritis (AIA, CIA) rat rheumatoid arthritis models of established disease.

[3] = test system: collagen-induced arthritis; assay: Collagen-induced arthritis (CIA) rat model of established disease; format: in vivo
Description: This example provides additional characterizations of the animals in example 7 that were treated with either vehicle, AB0041 (in the rat model) or AB0046 (in the mouse model) at 2, 10, or 50 mg/Kg, Enbrel at 10 mg/Kg, or methotrexate (MTX) at 0.5 mg/Kg.
In addition to clinical scoring in Table 6 that was conducted in example 7, paw swelling, ankle diameter and body weights of the treated animals were measured. The measurements were conducted once a week before randomization and three times a week thereafter.
In addition, hind limbs were examined microscopically for soft-tissue changes (edema, tissue/vessel necrosis, inflammatory cell infiltration, and fibroplasias) and cartilage and bone changes (cartilage erosion, bone erosion, periosteal bone formation, synovitis, pannus formation, and joint destruction). […] The severity scores were based on global changes in each limb.
For anti-TNF-alpha scoring, the entire region of the limb anterior to the tarsal-metatarsal joint was scored. Anti-CD68 staining was evaluated using 3-4 images per limb of synovial membranes in the joints formed by the talus bone, with the scores of each membrane averaged and the value assigned as the overall inflammation score. […] Also, MMP9-expressing cells were identified as osteoclasts and cells of the monocyte/macrophage lineage.
Further, serum panel analyses of terminal serum samples were characterized using ELISA. […] AB0046 titers were measured in terminal serum samples.

B1: AB0041: mouse monoclonal antibody to human MMP9, mouse IgG2b heavy chain (SEQ ID NO: 1) and mouse kappa light chain (SEQ ID NO: 2) (antibody, listed as Mus musculus)
heavy: MAVLVLFLCLVAFPSCVLSQVQLKESGPGLVAPSQSLSITCTVSGFSLLSYGVHWVRQPPGKGLEWLGVIWTGGTTNYNSALMSRLSISKDDSKSQVFLKMNSLQTDDTAIYYCARYYYGMDYWGQGTSVTVSSAKTTPPSVYPLAPGCGDTTGSSVTLGCLVKGYFPESVTVTWNSGSLSSSVHTFPALLQSGLYTMSSSVTVPSSTWPSQTVTCSVAHPASSTTVDKKLEPSGPISTINPCPPCKECHKCPAPNLEGGPSVFIFPPNIKDVLMISLTPKVTCVVVDVSEDDPDVRISWFVNNVEVHTAQTQTHREDYNSTIRVVSALPIQHQDWMSGKEFKCKVNNKDLPSPIERTISKIKGLVRAPQVYILPPPAEQLSRKDVSLTCLVVGFNPGDISVEWTSNGHTEENYKDTAPVLDSDGSYFIYSKLDIKTSKWEKTDSFSCNVRHEGLKNYYLKKTISRSPGK
light: MESQIQVFVFVFLWLSGVDGDIVMTQSHKFMSTSVGDRVSITCKASQDVRNTVAWYQQKTGQSPKLLIYSSSYRNTGVPDRFTGSGSGTDFTFTISSVQAEDLAVYFCQQHYITPYTFGGGTKLEIKRADAAPTVSIFPPSSEQLTSGGASVVCFLNNFYPKDINVKWKIDGSERQNGVLNSWTDQDSKDSTYSMSSTLTLTKDEYERHNSYTCEATHKTSTSPIVKSFNRNEC
modifications: CHAIN (1)...(470) AB0041 heavy chain; CHAIN (1)...(234) AB0041 light chain
[1]
  animals surviving: 70%
Lewis rats
  H&E staining of hind knee joints: No synovitis or fibrosis was observed
  average MSS score: zero
  histopathology of primary organs (H&E): No treatment-related abnormalities were observed
  rats with slight limping, avoidance of one hind foot (gait score=1): No symptoms were detected
  serum chemistry panel: within normal ranges
Lewis rats; iv, 50 mg/kg
  signs of MSS: No signs of MSS
CD4+ T cell; CD4+ T cell response, 20 healthy donors of various HLA haplotypes
  donors in which a response was induced: 20%
CD4+ T cell; mean+/−standard deviation
  magnitude of response: 2.29+/−0.36
[2]
  mean steady-state serum levels: 2 to 4 mg/mL
MMP9
  binding and inhibitory properties: equivalent binding and inhibitory properties
Adjuvant arthritis (AIA)
  inflammation and joint damage: efficacious
[3]; 50 mg/kg
  soft tissue disease, joint damage and destruction (histology): reduced all measures of soft tissue diseases, joint damage and destruction
[3]; 50 mg/kg, compared to vehicle
  CD68 score by IHC: significant reduction
  TNF-alpha score by IHC: significant reduction
[3]; 50, 10 and 2 mg/kg twice per week (4 doses)
  arthritis clinical scores: reduced arthritis clinical scores
[3]; all doses (2, 10, 50 mg/Kg)
  qualitative and quantitative measurements of clinical disease (paw swelling, ankle diameter, body weight): significant reversal/mitigation
[3]; end of study
  serum levels of TNFα, IL-6 and IL-17A: efficacious in reducing serum levels
[3]; terminal serum, ELISA
  serum markers (TIMP-1, GM-CSF, MIP-2, MIP-1β, M-CSF-1, OSM, CXCL10, MCP-5, IL-12p70, INF-γ, IL-12, IL-7): statistically significant reduction
